Marks after values point to notes of the source that are not given here. Each block holds one substance with its values, some of them ahead of it. Positions of bridges follow the written chain, without caps; N, C: chain ends. GL‑2‑branched CH3O‑PEG (40k)‑CH2 = glycerol skeleton-containing 2-branched methoxy-PEG (40 kDa) attached via alkylamine (CH2) linkage; GL‑2‑branched CH3O‑PEG (40k)‑CO = glycerol skeleton-containing 2-branched methoxy-PEG (40 kDa) attached via urethane (CO) linkage
Target: T1, AM receptor (Homo sapiens, UniProt O60895+Q16602)
T1 construct: expressed in transfected cells; host or cells: HEK293 cell line
T1 sequence (Q16602 23-461): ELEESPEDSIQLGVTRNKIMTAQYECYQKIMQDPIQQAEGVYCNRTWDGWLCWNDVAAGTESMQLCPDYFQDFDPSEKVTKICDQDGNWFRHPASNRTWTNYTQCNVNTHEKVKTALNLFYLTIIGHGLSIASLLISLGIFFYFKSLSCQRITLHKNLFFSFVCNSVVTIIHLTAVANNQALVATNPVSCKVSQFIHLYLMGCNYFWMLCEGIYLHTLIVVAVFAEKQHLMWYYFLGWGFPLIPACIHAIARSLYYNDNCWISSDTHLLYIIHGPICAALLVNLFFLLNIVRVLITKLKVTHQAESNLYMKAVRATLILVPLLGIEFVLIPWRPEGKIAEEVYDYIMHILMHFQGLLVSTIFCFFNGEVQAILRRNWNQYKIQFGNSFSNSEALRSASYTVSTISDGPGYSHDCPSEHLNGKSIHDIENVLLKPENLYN
T1 sequence (O60895 43-175): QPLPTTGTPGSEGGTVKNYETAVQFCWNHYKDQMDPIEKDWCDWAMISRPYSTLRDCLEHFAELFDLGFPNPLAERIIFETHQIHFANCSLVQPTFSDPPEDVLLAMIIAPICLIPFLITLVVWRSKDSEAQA
Experiment: Intracellular cAMP concentration-increasing effect in HEK293 cell line caused to express an AM receptor;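 further: cAMP inside confluent receptor-expressing cells quantified by ELISA after 15 min exposure to each peptide at 10^−8 mol/L alongside 0.5 mM IBMX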
Type: cell-based
Conditions: for Intracellular cAMP concentration-increasing effect (%): 10^−8 mol/L, 15 minutes, 0.5 mM IBMX; for influence of N-terminal deletion of the peptide moiety on the intracellular cAMP concentration-increasing effect: in words

[1] = percentage with respect to h.AM (1-52)
[2] = percentage with respect to h.AM (6-52)
[3] = percentage with respect to h.AM (16-52)

Substance: CH3O-PEG (5k)-(CH2)2—CH2-^αNH-(h.AM (6-52)) ({CH3O‑PEG (5k)‑(CH2)2—CH2}-NNFQGLRSFGCRFGTCTVQKLAHQIYQFTDKDKDNVAPRSKISPQGY-NH2; disulfide 11-16 (inferred); ends not checked) [Compound (18)]
Intracellular cAMP concentration-increasing effect (%) [1]: 90%
influence of N-terminal deletion of the peptide moiety on the intracellular cAMP concentration-increasing effect: suppressed the influence of N-terminal deletion

Substance: CH3O-PEG (5k)-(CH2)2—CH2-^αNH-(h.AM (11-52)) ({CH3O‑PEG (5k)‑(CH2)2—CH2}-LRSFGCRFGTCTVQKLAHQIYQFTDKDKDNVAPRSKISPQGY-NH2; disulfide 6-11 (inferred); ends not checked) [Compound (19)]
Intracellular cAMP concentration-increasing effect (%) [1]: 80%
influence of N-terminal deletion of the peptide moiety on the intracellular cAMP concentration-increasing effect: suppressed the influence of N-terminal deletion

Substance: CH3O-PEG (5k)-(CH2)2—CH2-^αNH-(h.AM (16-52)) ({CH3O‑PEG (5k)‑(CH2)2—CH2}-CRFGTCTVQKLAHQIYQFTDKDKDNVAPRSKISPQGY-NH2; disulfide 1-6 (inferred); ends not checked) [Compound (20)]
Intracellular cAMP concentration-increasing effect (%) [1]: 39%
influence of N-terminal deletion of the peptide moiety on the intracellular cAMP concentration-increasing effect: suppressed the influence of N-terminal deletion

Substance: CH3O-PEG (5k)-(CH2)5-CO-^αNH-(h.AM (11-52)) ({CH3O‑PEG (5k)‑(CH2)5‑CO}-LRSFGCRFGTCTVQKLAHQIYQFTDKDKDNVAPRSKISPQGY-NH2; disulfide 6-11 (inferred); ends not checked) [Compound (16), amide linkage-type PEG (5k) adrenomedullin derivative, reference compound]
Intracellular cAMP concentration-increasing effect (%) (percentage with respect to h.AM (11-52)): 1**^) %
influence of N-terminal deletion of the peptide moiety on the intracellular cAMP concentration-increasing effect: significantly decreased

Substance: CH3O-PEG (5k)-(CH2)5—CO-^αNH-(h.AM (6-52)) ({CH3O‑PEG (5k)‑(CH2)5—CO}-NNFQGLRSFGCRFGTCTVQKLAHQIYQFTDKDKDNVAPRSKISPQGY-NH2; disulfide 11-16 (inferred); ends not checked) [Compound (15), amide linkage-type PEG (5k) adrenomedullin derivative, reference compound]
Intracellular cAMP concentration-increasing effect (%) [2]: 101*^) %
influence of N-terminal deletion of the peptide moiety on the intracellular cAMP concentration-increasing effect: significantly decreased

Substance: CH3O-PEG (5k)-(CH2)5—CO-^αNH-(h.AM (16-52)) ({CH3O‑PEG (5k)‑(CH2)5—CO}-CRFGTCTVQKLAHQIYQFTDKDKDNVAPRSKISPQGY-NH2; disulfide 1-6 (inferred); ends not checked) [Compound (17), amide linkage-type PEG (5k) adrenomedullin derivative, reference compound]
Intracellular cAMP concentration-increasing effect (%) [3]: 9***^) %
influence of N-terminal deletion of the peptide moiety on the intracellular cAMP concentration-increasing effect: significantly decreased

Substance: CH3O-PEG (20k)-(CH2)2—CH2-^αNH-(h.AM (6-52)) ({CH3O‑PEG (20k)‑(CH2)2—CH2}-NNFQGLRSFGCRFGTCTVQKLAHQIYQFTDKDKDNVAPRSKISPQGY-NH2; disulfide 11-16 (inferred); ends not checked) [Compound (21)]
Intracellular cAMP concentration-increasing effect (%) [2]: 98*^) %
influence of N-terminal deletion of the peptide moiety on the intracellular cAMP concentration-increasing effect: high intracellular cAMP concentration-increasing effect without the influence of the N-terminal deletion

Substance: CH3O-PEG (20k)-(CH2)2—CH2-^αNH-(h.AM (11-52)) ({CH3O‑PEG (20k)‑(CH2)2—CH2}-LRSFGCRFGTCTVQKLAHQIYQFTDKDKDNVAPRSKISPQGY-NH2; disulfide 6-11 (inferred); ends not checked) [Compound (22)]
Intracellular cAMP concentration-increasing effect (%) [1]: 97%
influence of N-terminal deletion of the peptide moiety on the intracellular cAMP concentration-increasing effect: high intracellular cAMP concentration-increasing effect without the influence of the N-terminal deletion

Now from value to substance, other results behind:

Intracellular cAMP concentration-increasing effect (%) [1]: 97%
Substance: CH3O-PEG (20k)-(CH2)2—CH2-^αNH-(h.AM (16-52)) ({CH3O‑PEG (20k)‑(CH2)2—CH2}-CRFGTCTVQKLAHQIYQFTDKDKDNVAPRSKISPQGY-NH2; disulfide 1-6 (inferred); ends not checked) [Compound (23)]
influence of N-terminal deletion of the peptide moiety on the intracellular cAMP concentration-increasing effect: high intracellular cAMP concentration-increasing effect without the influence of the N-terminal deletion

Intracellular cAMP concentration-increasing effect (%) [1]: 99%
Substance: GL-2-branched CH3O-PEG (20k)-CO-^αNH-(h.AM (6-52)) ({GL‑2‑branched CH3O‑PEG (20k)‑CO}-NNFQGLRSFGCRFGTCTVQKLAHQIYQFTDKDKDNVAPRSKISPQGY-NH2; disulfide 11-16 (inferred); ends not checked) [Compound (30)]

Intracellular cAMP concentration-increasing effect (%) [1]: 104%
Substance: GL-2-branched CH3O-PEG (20k)-CO-^αNH-(h.AM (11-52)) ({GL‑2‑branched CH3O‑PEG (20k)‑CO}-LRSFGCRFGTCTVQKLAHQIYQFTDKDKDNVAPRSKISPQGY-NH2; disulfide 6-11 (inferred); ends not checked) [Compound (31)]

Intracellular cAMP concentration-increasing effect (%) [1]: 96%
Substance: GL-2-branched CH3O-PEG (20k)-CO-^αNH-(h.AM (16-52)) ({GL‑2‑branched CH3O‑PEG (20k)‑CO}-CRFGTCTVQKLAHQIYQFTDKDKDNVAPRSKISPQGY-NH2; disulfide 1-6 (inferred); ends not checked) [Compound (32)]

Intracellular cAMP concentration-increasing effect (%) (percentage with respect to h.AM (1-52)-Gly): 96****^) %
Substance: GL-2-branched CH3O-PEG (40k)-CH2-^αNH-(h.AM (1-52)-Gly) [Compound (36)]

Intracellular cAMP concentration-increasing effect (%) [1]: 77%
Substance: GL-2-branched CH3O-PEG (40k)-CH2-^αNH-(h.AM (6-52)) ({GL‑2‑branched CH3O‑PEG (40k)‑CH2}-NNFQGLRSFGCRFGTCTVQKLAHQIYQFTDKDKDNVAPRSKISPQGY-NH2; disulfide 11-16 (inferred); ends not checked) [Compound (29)]

Intracellular cAMP concentration-increasing effect (%) [3]: 93***^) %
Substance: GL-2-branched CH3O-PEG (40k)-CH2-^αNH-(h.AM (16-52)) ({GL‑2‑branched CH3O‑PEG (40k)‑CH2}-CRFGTCTVQKLAHQIYQFTDKDKDNVAPRSKISPQGY-NH2; disulfide 1-6 (inferred); ends not checked) [Compound (24)]

Intracellular cAMP concentration-increasing effect (%) [1]: 61%
Substance: GL-2-branched CH3O-PEG (40k)-CO-^αNH-(h.AM (16-52)) ({GL‑2‑branched CH3O‑PEG (40k)‑CO}-CRFGTCTVQKLAHQIYQFTDKDKDNVAPRSKISPQGY-NH2; disulfide 1-6 (inferred); ends not checked) [Compound (33)]

Intracellular cAMP concentration-increasing effect (%) [1]: 83%
Substance: GL-4-branched CH3O-PEG (40k)-CO-^αNH-(h.AM (6-52)) ({GL‑4‑branched CH3O‑PEG (40k)‑CO}-NNFQGLRSFGCRFGTCTVQKLAHQIYQFTDKDKDNVAPRSKISPQGY-NH2; disulfide 11-16 (inferred); ends not checked) [Compound (34)]

Source: patent publication US11478551B2, “Long-acting adrenomedullin derivative” (University of Miyazaki, priority 2015, dated 2022)
